According to patent publication US20110195068A1, “PD-1 ANTAGONISTS AND METHODS OF USE THEREOF” (priority 2008, published 2011):
Each block holds one molecule with its values, some of them ahead of it.

What was measured:
[1] = system: CT26 colorectal tumor cells; conditions: CTX 100 mg/kg alone, day 10; all mice in the group
Experimental: Mouse colorectal tumor cell line, CT26, was obtained from ATCC. A master cell bank at Passage 4 was generated following ATCC guidelines.
One vial of tumor cells was thawed from the cryopreserved stocks and grown for two passages prior to inoculation.
CT26 cells were split at 1:5 dilution with 30 mL complete medium (RPMI+10% FBS, 2 mM L-Glu, and 1×P/S) for two days culture or at 1:10 dilution with 30 ml complete medium for 3 days culture.
CT26 cells were harvested by aspirating medium, rinsing the flask with 5 mL PBS, adding 5 mL trypsin, incubating at 37° C. for 2 min, and then neutralizing with 10 mL complete medium. After centrifuge at 600×g (˜1000 rpm) for 5 min, media was aspirated and the cell pellet was resuspended by pipetting with 10 ml plain RPMI. This wash step was repeated for three times.
Cell number and viability of the inoculated cells were analyzed by trypan blue dye staining with proper dilution (e.g. 1:5 dilution, 10 μL cells+40 μL trypan blue) and confirmed by NOVA cell count during the last wash step.
On Day 9, all the tumor-bearing mice were first grouped into a rat cage and randomly divided the mice to experimental groups. CTX solution was reconstituted by 1×PBS to 4 mg/mL. Mice were intraperitoneally (IP) injected with 0.5 mL of CTX solution resulting in 2 mg for a 20 gram mouse, i.e. 100 mg/kg.
The same dose was given 2 time a week for 4 weeks, total 8 doses.

[2] = molecular target: T1, recombinant human PD-1/Fc (Homo sapiens, UniProt Q15116); test: PD-1 binding ELISA, human B7-DC-Ig; conditions: plates coated with recombinant human PD-1/Fc, four different lots, FIG. 1A
T1 construct: Fc; purchased R&D Systems
T1 sequence (Q15116 with tags, fused parts or gaps limits assumed): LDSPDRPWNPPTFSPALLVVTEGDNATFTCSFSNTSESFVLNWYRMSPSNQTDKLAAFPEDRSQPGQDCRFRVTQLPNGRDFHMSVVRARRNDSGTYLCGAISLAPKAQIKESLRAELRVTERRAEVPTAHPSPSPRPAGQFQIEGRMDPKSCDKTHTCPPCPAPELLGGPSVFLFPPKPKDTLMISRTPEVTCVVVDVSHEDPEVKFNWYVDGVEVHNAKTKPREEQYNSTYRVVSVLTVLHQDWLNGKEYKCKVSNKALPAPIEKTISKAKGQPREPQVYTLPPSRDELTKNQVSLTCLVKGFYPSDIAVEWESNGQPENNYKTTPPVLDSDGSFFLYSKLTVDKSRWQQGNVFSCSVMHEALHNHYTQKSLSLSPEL
Experimental: (§1) 96-well ELISA plates were coated with 100 μL 0.75 ug/mL recombinant human PD-1/Fc (R&D Systems) diluted in BupH Carbonate/Bicarbonate pH 9.4 buffer (Pierce) for 2 hours and then blocked with BSA solution (Jackson ImmunoResearch) for 90-120 minutes. […] Absorbance at 450 nm was read using a plate reader (Molecular Devices) and data were analyzed in SoftMax using a 4-parameter logistic fit.

[3] = molecular target: T2, recombinant mouse PD-1/Fc (Mus musculus, UniProt Q02242); test: PD-1 binding ELISA, murine B7-DC-Ig; conditions: plates coated with recombinant mouse PD-1/Fc, compared with wild type, FIG. 1B
T2 construct: Fc; purchased R&D Systems
T2 sequence (Q02242 with tags, fused parts or gaps limits assumed): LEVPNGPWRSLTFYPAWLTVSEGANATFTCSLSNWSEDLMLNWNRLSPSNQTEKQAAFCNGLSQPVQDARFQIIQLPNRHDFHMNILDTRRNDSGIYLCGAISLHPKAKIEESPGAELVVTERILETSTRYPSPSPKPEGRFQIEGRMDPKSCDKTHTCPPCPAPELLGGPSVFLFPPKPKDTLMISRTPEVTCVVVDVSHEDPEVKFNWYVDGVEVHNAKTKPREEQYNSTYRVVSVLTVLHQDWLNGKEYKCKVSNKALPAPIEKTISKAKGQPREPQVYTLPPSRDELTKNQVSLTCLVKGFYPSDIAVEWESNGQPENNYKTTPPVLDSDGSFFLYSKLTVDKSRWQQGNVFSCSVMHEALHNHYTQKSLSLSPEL
Experimental: as §1, with “mouse” for “human”, “(Candor-Bioscience)” for “(Jackson ImmunoResearch)”, “90” for “90-120”

P815 mastocytoma cells = test: P815 mastocytoma tumor model; format: in vivo, DBA/2 mice
Experimental: P815 mastocytoma cells were derived from DBA/2 mice after methylcholanthrene (MCA) treatment. Injection of 5×10^4 cells SC can result in mortality approximately 35 days post tumor inoculation.
DBA/2 mice (6-10 weeks of age, females) were first challenged with 5×10^4 live P815 cells injected SC in the flank. Six days later, the mice were treated with murine B7-DC-Ig via IP injection. […] Control groups were treated with vehicle only or with murine IgG. Tumor size was measured with digital calipers every 2-3 days. Mice were euthanized and defined as dead when their tumor size reached or exceeded 1000 mm^3, according to protocols approved by the Institutional Animal Care and Use Committee (IACUC) of the American Red Cross (ARC; the site of Amplimmune's vivarium). Surviving tumor free mice were re-challenged with P815 tumor cells on Day 52.
The tumor-free mice were then re-challenged with 5×10^4 P815 cells administered to the flank opposite the primary inoculation site on Day 52.

[4] = system: more aggressive, less immunogenic tumor types; test: Activity against more aggressive, less immunogenic tumor types; format: in vivo; conditions: single agent
[5] = 100 ug per injection IP, 2 times per week, up to 6 doses
[6] = 5 mice per group, 5 mg/kg IP biw 3 weeks starting Day 6

Molecule: O=P1(N(CCCl)CCCl)NCCCO1 (stereo not shown) [CTX, cyclophosphamide]
outcome of mice with established tumors [1]: died as a result of tumor growth or were euthanized

B1: Murine B7-DC-Ig: murine PD-L2 (B7-DC) extracellular domain fused to hinge, CH2 and CH3 of murine immunoglobulin Cγ2a chain (SEQ ID NO:53/54) (protein, listed as Mus musculus)
chain: LFTVTAPKEVYTVDVGSSVSLECDFDRRECTELEGIRASLQKVENDTSLQSERATLLEEQLPLGKALFHIPSVQVRDSGQYRCLVICGAAWDYKYLTVKVKASYMRIDTRILEVPGTGEVQLTCQARGYPLAEVSWQNVSVPANTSHIRTPEGLYQVTSVLRLKPQPSRNFSCMFWNAHMKELTSAIIDPLSRMEPKVPRTWEPRGPTIKPCPPCKCPAPNLLGGPSVFIFPPKIKDVLMISLSPIVTCVVVDVSEDDPDVQISWFVNNVEVHTAQTQTHREDYNSTLRVVSALPIQHQDWMSGKEFKCKVNNKDLPAPIERTISKPKGSVRAPQVYVLPPPEEEMTKKQVTLTCMVTDFMPEDIYVEWTNNGKTELNYKNTEPVLDSDGSYFMYSKLRVEKKNWVERNSYSCSVVHEGLHNHHTTKSFSRTPGK
mice in which tumor was eradicated (P815 mastocytoma cells; [5]): two
mice responded to treatment (P815 mastocytoma cells; [5]): Four of 5
mice with delayed tumor growth during treatment (P815 mastocytoma cells; [5]): two
# Tumor <500 mm^3 (P815 mastocytoma cells; [6]): 2
# Tumor free (P815 mastocytoma cells; [6]): 2
# Tumor ≧500 mm^3 (P815 mastocytoma cells; [6]): 1
outcome of re-challenge of tumor-free mice (P815 mastocytoma cells; re-challenged with 5×10^4 P815 cells on Day 52, opposite flank, through 74 days after primary inoculation): remained tumor free
anti-tumor activity alone in the P815 model (P815 mastocytoma cells; single agent): effective
anti-tumor activity alone against more aggressive, less immunogenic tumor types [4]: minimal activity

Continued, values first:

PD-1 binding activity (OD450) [2]: binding
Molecule: B7-DC-Ig: human PD-L2 (B7-DC) extracellular domain fused to hinge, CH2 and CH3 of human immunoglobulin Cγ1 chain (SEQ ID NO:56/57)

PD-1 binding activity (OD450) [3]: reduced binding to PD-1
Molecule: D111S: murine B7-DC-Ig with the D111S substitution

PD-1 binding activity (OD450) [3]: reduced binding to PD-1
Molecule: K113S: murine B7-DC-Ig with the K113S substitution
